# Results taken from patent US20240025971A1.
# What was measured:
# [1] = biological target: SARS-CoV-1 spike (pseudovirus) (SARS-CoV-1) (UniProt P59594); assay: cell-based or functional assay
# [2] = biological target: SARS-CoV-2 Wuhan-1 full-length Spike protein (SARS-CoV-2) (UniProt P0DTC2); assay: cell-based or functional assay
# [3] = biological target: SARS-CoV-2 Spike (S) trimer (SARS-CoV-2) (UniProt P0DTC2); assay: ELISA, S trimer coated, 1:50 dilution
Substance,Pseudovirus Neutralization [1] [µg/mL],Pseudovirus Neutralization [2] [µg/mL],Optical Density (OD; 450 nm) [3] [OD450]
Anti-Nucleocapsid (Neg Control) (antibody),> 50,> 50,–
CA-1 (AB-009265) (antibody),–,–,2.74
CB-6 (AB-009264) (antibody),–,–,2.81
